Patent US20120093724

Assays:
semenogelin I = semenogelin I (UniProt P04279)
semenogelin II = semenogelin II (UniProt Q02383)
Sequence of semenogelin II (Q02383 24-582): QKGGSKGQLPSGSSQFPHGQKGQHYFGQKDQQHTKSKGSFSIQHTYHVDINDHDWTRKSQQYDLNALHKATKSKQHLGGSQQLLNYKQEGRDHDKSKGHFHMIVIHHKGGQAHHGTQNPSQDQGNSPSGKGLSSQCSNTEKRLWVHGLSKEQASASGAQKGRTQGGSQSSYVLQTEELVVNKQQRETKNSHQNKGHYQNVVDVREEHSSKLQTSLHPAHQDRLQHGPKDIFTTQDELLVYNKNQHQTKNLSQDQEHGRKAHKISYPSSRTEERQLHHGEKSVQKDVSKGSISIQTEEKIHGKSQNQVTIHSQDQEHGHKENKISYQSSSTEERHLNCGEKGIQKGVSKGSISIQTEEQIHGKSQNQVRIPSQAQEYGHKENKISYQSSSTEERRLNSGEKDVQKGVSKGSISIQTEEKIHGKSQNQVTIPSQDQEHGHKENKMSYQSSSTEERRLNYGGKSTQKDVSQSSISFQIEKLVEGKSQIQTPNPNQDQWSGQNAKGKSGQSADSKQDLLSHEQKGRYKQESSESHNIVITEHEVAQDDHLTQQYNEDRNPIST

Sequence of semenogelin I (P04279 24-462): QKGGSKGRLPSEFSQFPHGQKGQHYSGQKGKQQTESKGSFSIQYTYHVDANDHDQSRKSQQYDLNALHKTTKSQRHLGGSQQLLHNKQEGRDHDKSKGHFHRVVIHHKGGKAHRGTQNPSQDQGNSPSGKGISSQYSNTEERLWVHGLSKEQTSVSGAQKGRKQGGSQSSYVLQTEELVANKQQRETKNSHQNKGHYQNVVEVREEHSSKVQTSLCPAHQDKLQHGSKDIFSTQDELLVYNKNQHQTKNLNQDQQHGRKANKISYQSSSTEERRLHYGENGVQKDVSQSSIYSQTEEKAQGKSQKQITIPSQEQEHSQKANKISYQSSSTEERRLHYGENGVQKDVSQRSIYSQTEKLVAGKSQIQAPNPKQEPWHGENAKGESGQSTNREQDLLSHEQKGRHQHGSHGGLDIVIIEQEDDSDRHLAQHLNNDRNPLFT

human glandular kallikrein 2 was tested, and the number of cleavage sites sequenced (cleavage sites) (semenogelin I) was 4, the “proteolytic cleavage (fragments by HPLC)” value (semenogelin I) was “Cleavage of either Sg I or Sg II with hK2 results in generation of a multitude of peptides” and the number of cleavage sites sequenced (cleavage sites) (semenogelin II) was 7. For the same substance, the “proteolytic cleavage (fragments by HPLC)” value (semenogelin II) was “Cleavage of either Sg I or Sg II with hK2 results in generation of a multitude of peptides”.
